This note sets out measurements from patent US20230313180A1.

One may read the Kd as a measure of binding affinity in units of concentration. Low values mean tighter binding, high ones weaker binding. Broadly, the koff is the rate constant with which the complex falls apart. A lower koff goes with a long-lived complex. The kon is a measure of how fast the partners come together. A lower kon goes with slower complex formation.

For assay [1], the target named is SARS-CoV-2-RBD tagged with a C-terminal Fc tag (ACRO Biosystems) (SARS-CoV-2) (UniProt P0DTC2).
For assay [2] the target is unchanged. The assay can be described thus: BLI, immobilized SARS-CoV-2 RBD. For orientation: Biolayer interferometry detects binding as a change in optical thickness at a sensor tip.
The target of assay [3] is T1, SARS-CoV-2-RBD tagged with a C-terminal Fc tag (ACRO Biosystems) (SARS-CoV-2), P0DTC2. The assay can be described thus: BLI, immobilized SARS-CoV-2 RBD; reference Nb1-Nb1 genetic dimer.
Assay [4] addresses T1, SARS-CoV-2-RBD tagged with a C-terminal ….
For assay [5] the target is unchanged. The assay can be described thus: BLI, immobilized SARS-CoV-2 RBD; reference (Nb1N)2.
Assay [6] has the same target. The source holds these as a separate data set.

Read-outs that look alike come from different tables or passages of the source.

In assay [1], “Nb1-Nb1, genetically linked "tail to head" dimer of Nb1 (VHH72)” had a dissociation constant (Kd) of 89 nM, an off-rate (koff) of 0.00314 s⁻¹ and an on-rate constant (kon) of 35400 M⁻¹ s⁻¹. The same molecule gave a dissociation constant Kd in assay [2] of 88 nM.

B1: (Nb1N)3, homotrimer of Nb1 (VHH72) with Tet3.0 at the N-terminal position, joined by the 3-armed Tri-sTCO PEG linker (VHH)
VHH: SGTGSQVQLQESGGGLVQAGGSLRLSCAASGRTFSEYAMGWFRQAPGKEREFVATISWSGGSTYYTDSVKGRFTISRDNAKNTVYLQMNSLKPDDTAVYYCAAAGLGTVVSEWDYDYYLDYWGQGTQVTVSS
modifications: not checked
Molecule B1 yielded a fold tighter KD than the genetic dimer Nb1-Nb1 in assay [3] of 44 fold. In assay [4], this molecule returned a Kd of 2.31 nM, a koff of 0.000566 s⁻¹ and an on-rate constant (kon) of 246000 M⁻¹ s⁻¹. In assay [5], the fold larger kon than (Nb1N)2 came to 3 fold, the fold smaller koff than (Nb1N)2 amounted to 2 fold and the fold tighter KD than (Nb1N)2 came to 6 fold.

B2: (Nb1N)2, homodimer of Nb1 (VHH72) with Tet3.0 at the N-terminal position, joined by the 2-headed sTCO (PEG)12 linker (VHH)
VHH: SGTGSQVQLQESGGGLVQAGGSLRLSCAASGRTFSEYAMGWFRQAPGKEREFVATISWSGGSTYYTDSVKGRFTISRDNAKNTVYLQMNSLKPDDTAVYYCAAAGLGTVVSEWDYDYYLDYWGQGTQVTVSS
modifications: not checked
In the case of B2, in assay [3], the fold tighter binding than Nb1-Nb1 is 7 fold. Besides, in assay [6], the Kd was 13.8 nM, the off-rate constant (koff) turned out to be 0.00119 s⁻¹ and the kon worked out at 85800 M⁻¹ s⁻¹.

B3: (Nb142)2, homodimer of Nb1 (VHH72) with Tet3.0 at framework position Gly42, joined by the 2-headed sTCO (PEG)12 linker (VHH)
VHH: QVQLQESGGGLVQAGGSLRLSCAASGRTFSEYAMGWFRQAPGKEREFVATISWSGGSTYYTDSVKGRFTISRDNAKNTVYLQMNSLKPDDTAVYYCAAAGLGTVVSEWDYDYYLDYWGQGTQVTVSS
modifications: not checked
As for B3, in assay [3], the fold tighter binding than Nb1-Nb1 came to 3 fold. In assay [6], this molecule returned a Kd of 27.5 nM, a dissociation rate constant (koff) of 0.00201 s⁻¹ and a kon of 73100 M⁻¹ s⁻¹.

B4: (Nb1C)2, homodimer of Nb1 (VHH72) with Tet3.0 at the C-terminus, joined by the 2-headed sTCO (PEG)12 linker (VHH)
VHH: QVQLQESGGGLVQAGGSLRLSCAASGRTFSEYAMGWFRQAPGKEREFVATISWSGGSTYYTDSVKGRFTISRDNAKNTVYLQMNSLKPDDTAVYYCAAAGLGTVVSEWDYDYYLDYWGQGTQVTVSS
modifications: not checked
Turning to B4, in assay [3], the fold weaker binding than Nb1-Nb1 came to 1.5 fold. Moreover, in assay [6], the Kd worked out at 132 nM, the koff came to 0.0064 s⁻¹ and the kon amounted to 48100 M⁻¹ s⁻¹.

B5: (Nb113)2, homodimer of Nb1 (VHH72) with Tet3.0 at framework position Gln13, joined by the 2-headed sTCO (PEG)12 linker (VHH)
VHH: QVQLQESGGGLVQAGGSLRLSCAASGRTFSEYAMGWFRQAPGKEREFVATISWSGGSTYYTDSVKGRFTISRDNAKNTVYLQMNSLKPDDTAVYYCAAAGLGTVVSEWDYDYYLDYWGQGTQVTVSS
modifications: not checked
Turning to B5, in assay [6], the equilibrium dissociation constant (Kd) stood at 46 nM, the koff amounted to 0.00156 s⁻¹ and the kon turned out to be 33800 M⁻¹ s⁻¹.
